In patent US7244431B2, “Allergy vaccines and their preparation” (priority 2000, dated 2007):

Columns and labels:
[1] = test system: IgE antibodies in sera from birch pollen allergic patients; assay: ELISA detection of peptide- and rBet v 1-specific IgE antibodies; type: binding, human
In short: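 IgE binding detected by 1:1000 alkaline-phosphatase mouse monoclonal anti-human IgE after overnight 4 °C incubation with 1:3-diluted sera. Sera came from 60 birch pollen allergic patients (25 male, 35 female, age 19–60) and a non-atopic control.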

[2] = test system: basophilic granulocytes of birch pollen allergic individuals; assay: Basophil histamine-release assay; type: cell-based, human; details: 10^−3-10 μg/ml
Procedure: Granulocytes were isolated from heparinized blood samples of 3 birch pollen allergic individuals by dextran sedimentation (Valent, P. et al. (1989) Interleukin 3 activates human blood basophils via high-affinity binding sites. Proc. Natl. Sci. USA 86, 5542-5547). […] Histamine released in the cell-free culture supernatant was measured by radioimmunoassay (Immunotech, Marseille, France). Total histamine was determined after freezing and thawing of cells.

[3] = test system: birch pollen allergic patients; assay: Skin prick testing of allergic patients; type: in vivo, human
Procedure: SPTs were performed on the individuals forearms as described ([…]. et al. (1997) J. Clin Invest. 99, 1673-168; Dreborg S: (1989) J. Am. Acad. DerMatol. 21, 820-821). […] In addition standardized skin prick solutions (birch pollen extract and histamine) (Allergopharma, Reinbek, Germany) were tested. Reactions were recorded 20 minutes after SPT by photography and by transferring the ballpoint pen-surrounded wheal area with a scotch tape to paper.

[4] = all 60 birch pollen allergic patients

B1: rBet v 1: purified recombinant Bet v 1, major birch pollen allergen, purchased from BIOMAY (protein)
chain: GVFNYETETTSVIPAARLFKAFILDGDNLFPKVAPQAISSVENIEGNGGPGTIKKISFPEGFPFKYVKDRVDEVDHTNFKYNYSVIEGGPIGDTLEKISNEIKIVATPDGGSILKISNKYHTKGDHEVKAEQVKASKEMGETLLRAVESYLLAHSDAYN
- rBet v1-specific IgE antibodies, mean [1, 4]: 1.416 OD units
- rBet v1-specific IgE antibodies, range [1, 4]: 0.081-2.530 OD units
- IgE (OD) ([1]; serum of NHS, non-allergic control individual): 0.048 OD
- IgE (OD) ([1]; serum of patient 1): 0.829 OD
- IgE (OD) ([1]; serum of patient 2): 1.380 OD
- IgE (OD) ([1]; serum of patient 3): 2.144 OD
- IgE (OD) ([1]; serum of patient 4): 0.701 OD
- IgE (OD) ([1]; serum of patient 5): 0.344 OD
- IgE (OD) ([1]; serum of patient 6): 2.300 OD
- IgE (OD) ([1]; serum of patient 7): 2.245 OD
- IgE (OD) ([1]; serum of patient 9): 0.196 OD
- IgE (OD) ([1]; serum of patient 10): 0.097 OD
- IgE (OD) ([1]; serum of patient 11): 0.428 OD
- IgE (OD) ([1]; serum of patient 12): 0.271 OD
- IgE (OD) ([1]; serum of patient 13): 0.281 OD
- IgE (OD) ([1]; serum of patient 14): 0.704 OD
- IgE (OD) ([1]; serum of patient 20): 0.249 OD
- IgE (OD) ([1]; serum of patient 21): 0.461 OD
- IgE (OD) ([1]; serum of patient 22): 0.258 OD
- IgE (OD) ([1]; serum of patient 23): 1.555 OD
- IgE (OD) ([1]; serum of patient 25): 0.5 OD
- IgE (OD) ([1]; serum of patient 26): 0.191 OD
- IgE (OD) ([1]; serum of patient 27): 0.535 OD
- IgE (OD) ([1]; serum of patient 28): 0.492 OD
- IgE (OD) ([1]; serum of patient 29): 0.154 OD
- IgE (OD) ([1]; serum of patient 30): 0.081 OD
- IgE (OD) ([1]; serum of patient 32): 0.195 OD
- IgE (OD) ([1]; serum of patient 33): 0.106 OD
- IgE (OD) ([1]; serum of patient 34): 0.377 OD
- IgE (OD) ([1]; serum of patient 36): 0.306 OD
- IgE (OD) ([1]; serum of patient 38): 1.571 OD
- IgE (OD) ([1]; serum of patient 40): 0.084 OD
- IgE (OD) ([1]; serum of patient 43): 0.363 OD
- IgE (OD) ([1]; serum of patient 44): 2.386 OD
- IgE (OD) ([1]; serum of patient 45): 0.289 OD
- IgE (OD) ([1]; serum of patient 47): 0.381 OD
- IgE (OD) ([1]; serum of patient 48): 1.422 OD
- IgE (OD) ([1]; serum of patient 49): 0.379 OD
- IgE (OD) ([1]; serum of patient 51): 0.307 OD
- IgE (OD) ([1]; serum of patient 54): 1.310 OD
- IgE (OD) ([1]; serum of patient 55): 2.489 OD
- IgE (OD) ([1]; serum of patient 56): 2.530 OD
- IgE (OD) ([1]; serum of patient 57): 0.741 OD
- IgE (OD) ([1]; serum of patient 58): 0.072 OD
- IgE (OD) ([1]; serum of patient 59): 0.168 OD
- induction of histamine release [2]: dose-dependent release of histamine
- concentration inducing immediate type skin reactions in three patients (#1-3) ([3]; human, in vivo): < 0.78 µg/mL
- concentration sufficient to induce wheal reactions in all five birch pollen allergic patients ([3]; human, in vivo): 3.12 µg/mL
- mean wheal diameter ([3]; individual 1, rBet v 1 0.39 μg/ml): 2.5 mm
- mean wheal diameter ([3]; individual 1, rBet v 1 0.78 μg/ml): 4 mm
- mean wheal diameter ([3]; individual 1, rBet v 1 1.56 μg/ml): 4.5 mm
- mean wheal diameter ([3]; individual 1, rBet v 1 3.12 μg/ml): 5 mm
- mean wheal diameter ([3]; individual 1, rBet v 1 6.25 μg/ml): 6 mm
- mean wheal diameter ([3]; individual 1, rBet v 1 12.5 μg/ml): 13 mm
- mean wheal diameter ([3]; individual 2, rBet v 1 0.39 μg/ml): 2 mm
- mean wheal diameter ([3]; individual 2, rBet v 1 0.78 μg/ml): 3.5 mm
- mean wheal diameter ([3]; individual 2, rBet v 1 1.56 μg/ml): 5 mm
- mean wheal diameter ([3]; individual 2, rBet v 1 3.12 μg/ml): 5.5 mm
- mean wheal diameter ([3]; individual 2, rBet v 1 6.25 μg/ml): 7 mm
- mean wheal diameter ([3]; individual 2, rBet v 1 12.5 μg/ml): 7.5 mm
- mean wheal diameter ([3]; individual 2, rBet v 1 25 μg/ml): 8 mm
- mean wheal diameter ([3]; individual 3, rBet v 1 0.78 μg/ml): 2 mm
- mean wheal diameter ([3]; individual 3, rBet v 1 1.56 μg/ml): 3 mm
- mean wheal diameter ([3]; individual 3, rBet v 1 3.12 μg/ml): 4 mm
- mean wheal diameter ([3]; individual 3, rBet v 1 6.25 μg/ml): 6 mm
- mean wheal diameter ([3]; individual 3, rBet v 1 12.5 μg/ml): 6.5 mm
- mean wheal diameter ([3]; individual 3, rBet v 1 25 μg/ml): 8 mm
- mean wheal diameter ([3]; individual 4, rBet v 1 3.12 μg/ml): 2 mm
- mean wheal diameter ([3]; individual 4, rBet v 1 6.25 μg/ml): 3 mm
- mean wheal diameter ([3]; individual 4, rBet v 1 12.5 μg/ml): 4 mm
- mean wheal diameter ([3]; individual 4, rBet v 1 25 μg/ml): 4.5 mm
- mean wheal diameter ([3]; individual 5, rBet v 1 1.56 μg/ml): 2 mm
- mean wheal diameter ([3]; individual 5, rBet v 1 3.12 μg/ml): 2.5 mm
- mean wheal diameter ([3]; individual 5, rBet v 1 6.25 μg/ml): 4 mm
- mean wheal diameter ([3]; individual 5, rBet v 1 12.5 μg/ml): 11 mm
- mean wheal diameter ([3]; individual 5, rBet v 1 25 μg/ml): 5 mm
